T1: Recombinant human MMR (R&D systems) (human, UniProt P22897 19-1383)
T1 construct: Antigen of the PE-ELISA and the SPR; also called hMMR; recombinant hMMR
T1 sequence: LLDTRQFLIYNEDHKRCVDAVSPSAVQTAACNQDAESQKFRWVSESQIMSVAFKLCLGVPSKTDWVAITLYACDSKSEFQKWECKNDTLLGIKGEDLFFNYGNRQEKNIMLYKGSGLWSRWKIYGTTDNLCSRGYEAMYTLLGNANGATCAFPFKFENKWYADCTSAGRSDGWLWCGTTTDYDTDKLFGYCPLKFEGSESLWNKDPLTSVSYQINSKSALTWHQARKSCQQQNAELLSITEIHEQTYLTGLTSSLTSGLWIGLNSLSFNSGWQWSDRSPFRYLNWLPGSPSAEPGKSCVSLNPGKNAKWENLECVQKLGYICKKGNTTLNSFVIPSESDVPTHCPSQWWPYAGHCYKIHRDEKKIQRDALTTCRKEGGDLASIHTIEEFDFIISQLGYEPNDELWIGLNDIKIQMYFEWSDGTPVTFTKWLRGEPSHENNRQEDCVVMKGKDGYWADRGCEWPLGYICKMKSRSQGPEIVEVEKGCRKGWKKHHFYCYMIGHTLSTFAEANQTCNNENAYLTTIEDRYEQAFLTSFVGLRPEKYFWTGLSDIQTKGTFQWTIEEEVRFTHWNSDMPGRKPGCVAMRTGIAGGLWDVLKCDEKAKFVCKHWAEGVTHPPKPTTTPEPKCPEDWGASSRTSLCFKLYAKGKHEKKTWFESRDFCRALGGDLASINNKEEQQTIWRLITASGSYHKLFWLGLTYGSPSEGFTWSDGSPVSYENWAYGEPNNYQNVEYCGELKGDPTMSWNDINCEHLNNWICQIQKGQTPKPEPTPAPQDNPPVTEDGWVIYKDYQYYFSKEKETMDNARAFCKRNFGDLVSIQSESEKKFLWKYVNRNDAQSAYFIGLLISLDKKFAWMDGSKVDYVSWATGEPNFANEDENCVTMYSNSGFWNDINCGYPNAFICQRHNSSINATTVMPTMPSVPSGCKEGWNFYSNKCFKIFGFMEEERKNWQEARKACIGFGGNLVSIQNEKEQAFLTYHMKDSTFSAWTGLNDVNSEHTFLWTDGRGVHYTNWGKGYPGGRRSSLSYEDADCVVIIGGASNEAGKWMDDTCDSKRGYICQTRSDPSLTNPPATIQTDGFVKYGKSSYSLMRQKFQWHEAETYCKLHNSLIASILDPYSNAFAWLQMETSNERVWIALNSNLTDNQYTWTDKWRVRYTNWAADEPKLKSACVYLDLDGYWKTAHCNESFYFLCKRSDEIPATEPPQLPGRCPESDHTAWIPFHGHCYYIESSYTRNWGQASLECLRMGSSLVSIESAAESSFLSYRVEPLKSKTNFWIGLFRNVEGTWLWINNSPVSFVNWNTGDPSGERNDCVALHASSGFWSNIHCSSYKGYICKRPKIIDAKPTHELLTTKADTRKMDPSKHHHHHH

T2: Recombinant mouse MMR (R&D systems) (mouse, UniProt Q61830 20-1388)
T2 construct: Antigen of the PE-ELISA and the SPR; also called mMMR; recombinant mMMR
T2 sequence: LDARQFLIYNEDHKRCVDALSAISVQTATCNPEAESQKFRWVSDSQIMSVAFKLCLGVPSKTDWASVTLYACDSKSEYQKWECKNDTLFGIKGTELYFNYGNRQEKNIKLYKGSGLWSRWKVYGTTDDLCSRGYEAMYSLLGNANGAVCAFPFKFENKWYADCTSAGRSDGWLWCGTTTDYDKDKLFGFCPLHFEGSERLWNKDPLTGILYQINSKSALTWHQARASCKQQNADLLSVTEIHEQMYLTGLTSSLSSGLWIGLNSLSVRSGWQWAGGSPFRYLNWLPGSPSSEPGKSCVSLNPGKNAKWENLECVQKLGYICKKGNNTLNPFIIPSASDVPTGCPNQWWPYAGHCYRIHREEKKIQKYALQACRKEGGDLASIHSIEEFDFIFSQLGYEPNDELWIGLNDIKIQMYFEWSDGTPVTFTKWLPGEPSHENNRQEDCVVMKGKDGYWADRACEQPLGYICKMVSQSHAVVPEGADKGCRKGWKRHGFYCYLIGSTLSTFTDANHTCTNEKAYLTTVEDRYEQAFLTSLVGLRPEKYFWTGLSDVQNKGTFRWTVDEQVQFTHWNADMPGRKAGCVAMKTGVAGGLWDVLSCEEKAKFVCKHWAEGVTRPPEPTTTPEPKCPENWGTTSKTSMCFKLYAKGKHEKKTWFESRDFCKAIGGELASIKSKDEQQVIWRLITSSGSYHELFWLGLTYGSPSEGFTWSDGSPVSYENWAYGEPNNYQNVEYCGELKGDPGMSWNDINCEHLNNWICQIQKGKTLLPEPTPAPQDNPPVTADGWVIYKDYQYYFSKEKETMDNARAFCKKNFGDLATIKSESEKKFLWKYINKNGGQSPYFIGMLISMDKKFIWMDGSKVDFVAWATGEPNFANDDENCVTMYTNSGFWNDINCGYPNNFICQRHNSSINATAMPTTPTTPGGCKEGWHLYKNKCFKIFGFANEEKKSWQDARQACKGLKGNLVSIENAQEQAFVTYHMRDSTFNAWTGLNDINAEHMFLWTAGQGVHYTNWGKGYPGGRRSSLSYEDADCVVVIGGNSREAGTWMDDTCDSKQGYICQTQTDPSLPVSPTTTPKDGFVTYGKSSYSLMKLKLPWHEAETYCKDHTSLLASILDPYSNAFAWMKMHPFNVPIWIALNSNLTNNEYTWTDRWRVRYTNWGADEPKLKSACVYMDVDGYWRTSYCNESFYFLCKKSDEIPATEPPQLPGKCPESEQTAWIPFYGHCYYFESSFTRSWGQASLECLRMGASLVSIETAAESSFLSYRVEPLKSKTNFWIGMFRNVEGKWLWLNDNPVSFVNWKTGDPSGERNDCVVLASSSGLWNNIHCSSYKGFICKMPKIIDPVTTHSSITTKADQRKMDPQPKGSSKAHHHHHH


Tests used:
[1] = biological target: T1, Recombinant human MMR (R&D systems); experiment: PE-ELISA: periplasmic extract of the clone on plate-coated human MMR, OD405; background = irrelevant milk-blocking proteins
Method: (§1) Specific sdAb phages were enriched by several consecutive rounds of in vitro selection on antigen coated to wells of microtiter plates (Nunc). For isolation of human/mouse MMR cross-reactive Nbs, screening was performed using human and mouse MMR alternatingly. Bound phage particles were eluted with 100 mM triethylamine (pH 11.0), immediately neutralized with 1 M Tris-HCl (pH 7.4) and used to infect E. coli TG1 cells. Individual colonies were picked and expression of recombinant sdAb-M13 protein III by addition of 1 mM isopropyl-β-D-thiogalac-topyranoside (IPTG). The periplasmic extract of each clone was subsequently tested in ELISA for human MMR recognition with non-specific antigen coated wells serving as a negative control. Human/mouse MMR cross-reactive Nbs were also screened in a similar fashion against mouse MMR, only clones reactive with both human and mouse antigens were withheld as cross-reactive Nbs. Each ELISA was performed on plates coated with 1 μg/ml MMR in 100 mM NaHCO₃ buffer pH=8.8. After coating the plates are washed with PBS+0.05% TWEEN®-20 (PBST) and blocked for 2 hours with PBS+0.05% TWEEN® 20+2% non-fat dry milk powder (Nestle) (PBSM). The PE extracts are then incubated for 1 hour on the plate and then washed with PBST followed by 1 hour incubation of 0.5 μg/ml mouse anti-HA tag antibody (16B12, Covance) in PBSM. After washing with PBST, 1.5 μg/ml alkaline phosphatase conjugated anti-mouse antibody (Sigma) in PBSM in added to the plate for 1 hour followed by PBST washing. Finally, the ELISA is developed using 2 mg/ml alkaline phosphatase substrate (Sigma) in AP-buffer (100 mM NaCl, 50 mM MgCl₂, 100 mM Tris pH=9.5) and the optical density signal at 405 nm is measured.
(§2) Next, anti-human/mouse MMR cross-reactive sdAbs were generated (see also Material and Method section). The anti-human/anti mouse MMR phage bank was alternatingly screened on human and mouse MMR for a total of four rounds, resulting in up to 100-fold enrichments for hMMR/mMMR reactive phages from the second panning round. Therefore, 188 colonies from the second and third rounds were selected for PE-expression. These PE-extracts were used in PE-ELISAs to determine which clones react effectively to MMR, clones were selected after the ELISA on hMMR (FIG. 2). These clones were then screened for binding on mouse MMR (FIG. 3).

[2] = biological target: T2, Recombinant mouse MMR (R&D systems); experiment: PE-ELISA: periplasmic extract of the clone on plate-coated mouse MMR, OD405; background = irrelevant milk-blocking proteins
Method: as §1, §2

Binder	binding result [1]	binding result [2]
NbhmMMRm25.86 (VHH, Only tested as periplasmic extract in PE-ELISA; clone carries C-terminal HA and 6xHis tag) VHH: QVQLQESGGGLVQPGGSLRLSCAGSGFTVSTSMINWARQVPGKELEWLVDVLPSGSTYYADPVKGRFTISRDNAQNTIYLQMNYLKPEDTAIYYCAINRETMPPFRGQGTQVTVSS	binds	binds
NbhmMMRm18.63 (VHH, Only tested as periplasmic extract in PE-ELISA; clone carries C-terminal HA and 6xHis tag) VHH: QVQLQESGGGLVQPGGSLRLSCAPSGSIISINAMAWYRQAPGKERELVAAISSGGSTYYADSVKGRFTISGDIAKNLLWLQMNSLKPEDTAMYYCAPGGGWRPGAWGQGTQVTVSS	binds	binds
NbhmMMRm13.89 (VHH, Only tested as periplasmic extract in PE-ELISA; clone carries C-terminal HA and 6xHis tag) VHH: QVQLQESGGGLVQPGGSLRLSCAASGSIFSINAWGWYRQAPGKQRELVAEITSSGSTNYADSVKGRFTISGDNAKNSVYLHMNNLEPEDTAVYYCKAVAVTFTTPRSDYWGRGTQVTVSS	binds	binds

Second part, the binder after the results:

binding result [1]	binding result [2]	Binder
binds	binds	NbhmMMRm8.67 (VHH, Only tested as periplasmic extract in PE-ELISA; clone carries C-terminal HA and 6xHis tag) VHH: QVQLQESGGGLVQAGDSLRLSCLATGSMFSINAWGWYRQAPGKQRELVASITSGGGSTEYAESVKGRFTISRDSAKNMLYLQMNSLRPEDTAVYYCNAERWDGYALGYSPNHGSGHRPYNYWGQGTQVTVSS
binds	binds	NbhmMMRm27.95 (VHH, Only tested as periplasmic extract in PE-ELISA; clone carries C-terminal HA and 6xHis tag) VHH: QVQLQESGGRLGAAGGSLRLSCTASGFPFNIYPMSWVRQAPGKGFEWVSYISHGGTTTDYSDAVKGRFTISRDNAKNRLYLQMDSLKPEDTAVYFCAQGYARLMTDSELVRGQGTQVTVSS

Reference: US20150093336A1 (VIB VZW, published 2015)
